Reference: article doi:10.1101/2021.12.02.470928, “The PNUTS-PAD domain recruits MYC to the PNUTS:PP1 phosphatase complex via the oncogenic MYC-MB0 region” (bioRxiv, 2021)

Molecular target: T1, PNUTS(1-148), PNUTS amino-terminal domain (PAD) (UniProt Q96QC0 1-148)
T1 construct: PNUTS (PP1 nuclear targeting subunit), residues 1-148, termed PAD; Vector pET28-MHL (RRID:Addgene_26096) with N-terminal His6 tag and TEV site; Used 13C,15N-labelled in some NMR experiments; also called apo PAD; source: E. coli BL21 (DE3), purified (Ni-NTA, gel filtration)
T1 sequence (looked up): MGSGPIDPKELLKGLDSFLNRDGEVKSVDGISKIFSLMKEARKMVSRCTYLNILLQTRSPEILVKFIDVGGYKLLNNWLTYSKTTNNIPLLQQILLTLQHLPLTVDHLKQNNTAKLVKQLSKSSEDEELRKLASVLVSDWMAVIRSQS
Test: BLI; C-terminally biotinylated MYC constructs or N-terminally biotinylated peptides on SA biosensors, dipped into serial dilutions of PAD (WT or mutant); Octet RED384; room temperature; HBS-EP (10 mM HEPES pH 7.4, 150 mM NaCl, 3 mM EDTA, 0.005% P20) with 0.002 mg/ml BSA; Kd from steady-state response curves; apparent
Settings: both partners purified

Kd: 3.5 µM
B1: biotinylated MYC(1-88) with C-terminal AVI tag (domain or fragment, UniProt P01106-2 16-103, looked up)
chain: MPLNVSFTNRNYDLDYDSVQPYFYCDEEENFYQQQQQSELQPPAPSEDIWKKFELLPTPPLSPSRRSGLCSPSYVAVTPFSLRGDNDG
modifications: biotin on the C-terminal AVI tag
notes: MYC, residues 1-88 (contains MB0 and MBI); Purified 'as described above'; also called wild-type MYC(1-88); recombinant biotinylated MYC N-terminal protein; source: E. coli BL21 (DE3)-BirA, biotinylated by co-expressed BirA, purified; not shown: AVI tag, C-terminal, kept
